Results on 167 variants are retold here after the RNAGym collection of RNA variant scans (doi:10.7554/elife.90254).

B1: OR4K15 (parent)
chain: GUUAACGGUCAUAGGCCAUGGAAACUAGGAGCACCAUUUCGCUGCCAGUGAAGAAAUGAACAAAGAAAAUCUGGGCCAGGCAGGCAUCAAAAGAAAUAGUCUUGCGCUCAACCAGAAAGUCUGUAAUCAUUUUAAGGGUA

The data set covers variants of B1. The experiment in a line: self-cleavage, relative activity (ratio to wild type); higher = more cleavage; in vitro, sequencing; the parent is a self-cleaving ribozyme.
For the variant U26C A27C, the self-cleavage was 2.1.
The same measure for A27G G123U: 1.67; for U26A A63U: 2.02; for U26A A63C: 1.71.
The same measure for A30G A114G: 0.23; for A30G A114U: 0.05; for A27G A117U: 0.53.
The same measure for A27G A117G: 1.15; for G29A U130C: 1.7; for A27G A110C: 0.43.
A27G A110G: the self-cleavage stood at 0.1.
On to A30G A63G, for which the self-cleavage came to 1.57.
The same measure for A30C A55G: 1.44; for A27U A64G: 1.58; for A27G A129G: 1.06.
The same measure for U26C A114G: 0.04.
Regarding U26C U131A, the self-cleavage is 1.02.
For the variant U26C A78G, the self-cleavage is 0.21.
The value for U26C A78U was 0.21; that for C25U A89C was 1.42; that for A30G C121A was 2.31.
The same measure for A27U U97C: 1.75; for A30G A82C: 0.07; for A27U U37C: 1.42.
Consider A27G U139C, for which the self-cleavage turned out to be 1.05.
As for A27G A125G, the self-cleavage was 0.26.
Regarding A27G A125U, the self-cleavage was found to be 1.41.
The same measure for G29A A66G: 1.59; for G29A A129G: 1.59.
For A27C, the self-cleavage is 1.21.
The value for A27U was 0.91; that for A27G was 1.1; that for U26C A51G was 1.72.
On to U26C A47G, for which the self-cleavage is 1.24.
The same measure for U26C U124C: 1.05; for C25U U72C: 0.4; for G28A U124C: 0.6.
For the variant A27G A68U, the self-cleavage came to 1.1.
C25U A56G: the self-cleavage worked out at 0.46.
On to U26A U37C, for which the self-cleavage turned out to be 0.43.
The value for A30G A135G was 1.51.
The same measure for A30G A36G: 1.44; for A30G A36U: 1.32; for U26C A140U: 0.35.
The value for A27U U130C was 1.07.
Regarding U26G A114U, the self-cleavage stood at 0.06.
The value for A27G A116U was 0.05; that for A30G A69U was 1.18.
The same measure for A27G U57C: 0.49.
The same measure for A30G A55U: 1.44.
With C25U A118G, the self-cleavage was found to be 0.68.
The value for G28U A118G was 0.84.
The value for G28U A118U was 0.68; that for C25A A135G was 1.61; that for U26C A135U was 0.57.
The same measure for A27U A134G: 1.3.
For the variant U26C A95G, the self-cleavage was found to be 1.75.
The value for A30G A51U was 1.46.
The value for A27G A82G was 0.33.
Take A27G A82C: the self-cleavage came to 0.1.
Consider A24U U100A, for which the self-cleavage turned out to be 0.31.
The value for U26C A118G was 2.14; that for A27U U70A was 1.68.
Consider A27U G44U, for which the self-cleavage amounted to 2.13.
As to U26C U37C, the self-cleavage is 0.95.
The same measure for A30G A56C: 0.43; for U26C U39C: 1.63; for G28A U120C: 1.28.
The value for G29A A47G was 0.87; that for A27G A56G was 1.57; that for A30G A90U was 1.68.
Take A27C A78C: the self-cleavage amounted to 0.25.
The same measure for U26C A60U: 1.43; for G28A U70A: 1.02; for A30G A64U: 0.3.
For A30G A64C, the self-cleavage stood at 1.38.
The value for G29C U100C was 2.39.
Consider G29C U37C, for which the self-cleavage turned out to be 1.25.
Turning to A30C A36G, the self-cleavage is 2.26.
Regarding U26A U139A, the self-cleavage came to 1.05.
The same measure for U26C U122A: 1.87.
The same measure for G29A U108C: 0.03.
The same measure for G29A A67G: 1.29; for A30C A64U: 0.92.
With A27G U108C, the self-cleavage was 0.02.
Consider A27C A91G, for which the self-cleavage worked out at 0.64.
Turning to A30G C35A, the self-cleavage amounted to 0.7.
Regarding A24U U108A, the self-cleavage amounted to 0.07.
The value for A24U U108C was 0.02; that for A27G C71A was 0.66; that for A27G A52G was 1.44.
On to A30C G75C, for which the self-cleavage is 0.12.
Regarding A27G U70C, the self-cleavage stood at 0.56.
The value for U26C U132C was 0.52.
Take A24U A116G: the self-cleavage stood at 0.78.
The same measure for A30G A95G: 0.44; for A27G A30C: 1.14.
The same measure for A27G A30U: 1.61; for A27U A54G: 1.64.
The same measure for U26C U127C: 0.85.
In the case of G29A A96U, the self-cleavage amounted to 1.27.
U26C U43A: the self-cleavage amounted to 1.29.
Take A27U A59U: the self-cleavage is 1.64.
The value for A27U U139C was 1.56; that for G29U A118G was 0.78; that for U26C A62G was 1.47.
A27G A135G: the self-cleavage is 0.84.
Turning to A24U A62G, the self-cleavage amounted to 2.33.
Regarding A27G A63U, the self-cleavage is 1.83.
Take U26C A82G: the self-cleavage is 0.5.
Regarding A30G A98G, the self-cleavage came to 0.76.
The same measure for U26C A66G: 0.9.
As to A27U U120C, the self-cleavage turned out to be 0.85.
Take A30G A110U: the self-cleavage stood at 1.1.
The same measure for U26A A110G: 0.22; for A27G U131G: 1.09.
Take A24U U97G: the self-cleavage was found to be 1.9.
The value for U26A A140G was 2.37; that for A30G A59G was 1.5.
The value for A27C A36C was 2.11; that for U26C G44U was 1.99; that for G28A U102C was 0.81.
Regarding A30G A52U, the self-cleavage is 1.62.
The same measure for C25U: 1.3; for C25A: 0.92; for C25G: 1.1.
The value for A27G G44A was 1.52; that for A24U A78G was 0.38.
Regarding A27G U97A, the self-cleavage came to 1.24.
The value for G29U C88U was 2.55; that for A24U U103C was 0.25.
The value for C25U A92G was 0.6; that for U26C A94G was 0.95.
The same measure for G29A A86G: 1.65.
In the case of A24U A126G, the self-cleavage amounted to 1.15.
U26C U87A: the self-cleavage is 1.6.
In the case of A27G A59G, the self-cleavage worked out at 1.03.
As to A27G A59U, the self-cleavage amounted to 1.24.
A24U A52G: the self-cleavage amounted to 1.32.
The same measure for G28A A55G: 1.7; for A30G C40U: 0.89.
Turning to C25U A82G, the self-cleavage came out at 0.05.
The same measure for C25A A33G: 0.9; for A30G A92G: 1.05; for A30G A92U: 0.71.
In the case of A24U G28C, the self-cleavage was determined as 1.02.
The value for A24U A95G was 1.95.
The value for A27G A92C was 1.36.
The value for A30G A47C was 1.21; that for A30G A47G was 0.71.
On to A27U U122C, for which the self-cleavage stood at 1.42.
The same measure for A27G A55G: 1.57; for U26A A59G: 1.18.
Regarding A27G A91G, the self-cleavage is 1.22.
As to A27G A91C, the self-cleavage amounted to 1.42.
The value for A27G A118G was 0.47; that for A27G A118U was 0.36.
The value for A30G A129G was 1.02; that for U26G A89C was 1.29.
Take A27G A114U: the self-cleavage was 0.16.
The value for G29A A92U was 1.86; that for G29A A92G was 1.16; that for A30C A89G was 1.34.
The value for A24U A89G was 0.56.
On to A27G A47G, for which the self-cleavage was 0.68.
The same measure for U26A A62G: 1.75; for C25U A86U: 0.61.
